Measured values reported in patent US20250034594A1, “RNA-GUIDED GENOME RECOMBINEERING AT KILOBASE SCALE” (THE BOARD OF TRUSTEES OF THE LELAND STANFORD JUNIOR …, priority 2021, published 2025).

Tests used:
Type in all cases: cell-based
[1] = tested on: gene editing with Cas9; assay: Screen of 322 new SSAP proteins, gene editing activity with Cas9 (Table 5); parameters: Cas9 with SSAP activity: scale not given here
In short: (§1)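 Sequence-mined SSAPs (n=322), synthesized; editing activity screened with Cas9 or dCas9.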

[2] = tested on: gene editing with dCas9; assay: Screen of 322 new SSAP proteins, gene editing activity with dCas9 (Table 5); parameters: dCas9 with SSAP activity: scale not given here
In short: as §1

[3] = tested on: gene editing with Cas9 and dCas9; assay: Screen of 322 new SSAP proteins, activity across all experiments (Cas9 and dCas9, Table 5); parameters: scale not given here
In short: as §1

| Molecule | Cas9 with SSAP activity [1] | Cas9 with SSAP activity (normalized) [1] | dCas9 with SSAP activity [2] | dCas9 with SSAP activity (normalized) [2] | Activity across all experiments [3] |
| --- | --- | --- | --- | --- | --- |
| SSAP_7: SEQ ID NO: 176 (protein) STNDELKNKLANKQNGGQVASAQSLGLKGLLEAPTMRKKFESVLDKKAPQFLTSLLNLYNGDDYLQKTDPMTVVTSAMVAATLDLPIDKNLGYAWIVPYKGRAQFQLGYKGYIQLALRTGQYKSINVIEVRDGELLKWNRLTEEIELDLDNNTSEKVIGYCGYFQLINGFEKTVYWTRKEIEAHKKKFSKSDFGWKKDYDAMAKKTVLRNMLSKWGILSIDMQTAVTEDEAEPRERKDVTEDESIPDIIDAPITPSDTLEAGSEVQGSMI | −7.628 | −1.701 | −7.447 | −1.443 | −7.537 |
| SSAP_261: SEQ ID NO: 430; Peptoniphilus grossensis (protein, listed as Peptoniphilus grossensis) TNIQKQENRALSPVNQMKNLLKNQGMQNLFADALKENKDRFLASIIDLYNGDTSLQDCNPKEVVMEALKAATLNLPINKNLGYAYIVPYNSKGTTRPQFQIGYKGYIQMAQRSGQYKALNAGILYEGMEVKRDFLRGTFEIIGEPKSDKVMGYFAYFQLLNGYEKAIYMTKDEVTEHAERYSQSYGSKYSPWKKQFDEMGQKTVIKKLLSKYGVLTTEFQDAVKEEEDREVLRATENNAMLEMTNPDEEEETIEVNPETGEIIEDDVKAPF | −0.535 | −0.174 | −7.740 | −1.199 | −4.137 |
| SSAP_312: SEQ ID NO: 481; Gallionellaceae bacterium CG1_02_56_997 (protein, Gallionellaceae bacterium CG1_02_56_997) GRKEVERIRDGSRGYQAAKKYKKESTWDTDFVAMGLKTAIRRICKFLPKSPELATALAMDEQAGRQNLNLDDVINGSYTPVVDKDTGEIVDVADGGKTGNSNAATSTKLEKLEKIVAALRDANSVEALDEIYIRAEGDLDDANLEIAMREYRKCKDAISNSLI | −0.905 | −0.436 | −0.097 | −0.073 | −0.501 |
| SSAP_230: SEQ ID NO: 399; Leuconostoc pseudomesenteroides (protein, Leuconostoc pseudomesenteroides) ANEITLAKQLSSDKVVEQFAATAGESAKSFAKEVALTISGNPALQHAKLGTVIVEATKASALGLSLLPTVGEAYLVPYKGDAQFQLGYKGIVQLAMRSGQMKSFGAESVYEGENPKWDKYNQELVTDGEETGKIIGYYAFFTLVNGFKMAAYWPKEKVEAHRDRFSKSKKGPWSTDFDAMAKKTVLKSILQYAPKSSEMKRALAEDTQAEYVQAGIQDVTPEPANIEAPIETANAPEINAQEESLFGELSDVDKETAPNPFAQNLGGDN | 0.548 | 0.321 | −7.949 | −1.164 | −3.700 |
| SSAP_78: SEQ ID NO: 247 (protein) RTDGTKEAGAAATAPTEGKAPAKAHKPADTIGAMIEKLKPQIERALPKHVTPDRMARMALTAIRNNPKLGQAEAVSLMGSIIQASQLGLEPNTPLGQCYIIPYNSKNGMQAQFQMGYKGIVDLAHRSGQYRQLTAHPVDEADEFRYSYGLNPDLVHVPAEKPSGKITHYYAVYHLTNGGFDFRVWSREKVEAHAKQYSKSFSSGPWQTNFDQMACKTVMIDLLRYAPKSVEIAKATSADNRTHTINPEDPDLNIDTIDGDFELEGEER | −0.849 | −0.295 | −7.766 | −2.216 | −4.307 |
| SSAP_260: SEQ ID NO: 429; Clostridium cochlearium (protein, listed as Clostridium cochlearium) ATNESLKNQLATKKETGIGSAGNTIKSLINSPVIKKRFEEVLDKRAPQYMSSIVNLVNSDTNLKKCDQMSVIASCMVAATMDLPVDKNLGYAWIVPYGNKAQFQMGYKGYVQLALRTGQYKSINVIEVHEGELEEWNPLTEELKIDFSKKESDAVIGYAGYFELLNGFKKSTYWTKEQITKHKNKFSKSDFGWKKDFDAMAKKTVLRNMLSKWGILSIEMQNAYTADHGVIKNEIMETGEVKENVEYIEADFESYEGTSIEEGGSNE | −3.745 | −0.581 | −7.734 | −1.301 | −5.739 |
| SSAP_255: SEQ ID NO: 424; Bacteroides eggerthii (protein, listed as Bacteroides eggerthii) GTVTTVPQLKSMLANENVKSRFKEILGKKAPGFISSIVAVANSNTLLQKAEPQSIMNAAVIAATLDLPINPNLGFAYIIPYGNQASFQIGYKGMTQLAMRSGQYKTINVTEVYEGEIKSENRFTGEYTFGERKSDKIVGYMAYFSLTNGFEKYMYMSREECEKHGKKFSQTYKRGGGLWATDFDSMSKKTVLKMLISKYGILSIDMQRAQTFDQAVVKDDLVEKNIDEAEVSYEDNPTNADVRRNAMKEALEEAEVVDETTGEIFNQPAQ | −0.273 | −0.044 | −7.473 |  | −3.873 |
| SSAP_292: SEQ ID NO: 461; Paenibacillus rhizosphaerae (protein, listed as Paenibacillus rhizosphaerae) SSKLVEINSKLDSFLDAQHKAMPKGFNKTRFLQNSMSVLRDIEGLEQCDPKSVALVMLKGAFLGLDFFNKECYPVVYAGKVEFQTDYKGEVKLVKKYSTKPVREIYAKLVRQGDDFSEEIVAGSQTINFKPLPFNNGEIVGAFAVVNYVDGTMQYDTMSTEEIEKIKVNFSRKSKKTNEYSKAWVVTPGEMYKKTVLRRLCKTIDLDFDTIEQAQAFEDAADMDFNQDSKPQQQSPLNPMVIDVEYEEVKEEQADAAEQE | −4.432 | −0.752 | −7.905 | −1.546 | −6.169 |
| SSAP_63: SEQ ID NO: 232 (protein) SELQQAAQGQADAGPVQVIYSHAKEIQNVLAKGTDMDRWLQMARLAVMRDPNLVNAAKRDPGSLMQAMLDCAEKGHIPGTEDYYLVPRKGGIQGMESWKGIAKRIMRSGRYQSIVAEVVYEGEDFDFNPNTMDRPVHQIKYMARTSGQPVLSYAYAVDHEGKPSTIAVADPRYIAKVKANSKGTVWADWDEAMYKKTAVKMLVDYVDTSSTDRRGVSTVQVDGPVGTFIDGVLEIEGGDQ | 0.570 | 2.381 | −7.424 | −1.335 | −3.427 |
